The source of these data is patent US20240124607A1 (Merck Sharp & Dohme, published 2024).

Substitutions are numbered along the chain they refer to.

First the molecules themselves.
T1: Human CEACAM5 I112V (human, UniProt P06731 35-685, limits assumed)
T1 sequence: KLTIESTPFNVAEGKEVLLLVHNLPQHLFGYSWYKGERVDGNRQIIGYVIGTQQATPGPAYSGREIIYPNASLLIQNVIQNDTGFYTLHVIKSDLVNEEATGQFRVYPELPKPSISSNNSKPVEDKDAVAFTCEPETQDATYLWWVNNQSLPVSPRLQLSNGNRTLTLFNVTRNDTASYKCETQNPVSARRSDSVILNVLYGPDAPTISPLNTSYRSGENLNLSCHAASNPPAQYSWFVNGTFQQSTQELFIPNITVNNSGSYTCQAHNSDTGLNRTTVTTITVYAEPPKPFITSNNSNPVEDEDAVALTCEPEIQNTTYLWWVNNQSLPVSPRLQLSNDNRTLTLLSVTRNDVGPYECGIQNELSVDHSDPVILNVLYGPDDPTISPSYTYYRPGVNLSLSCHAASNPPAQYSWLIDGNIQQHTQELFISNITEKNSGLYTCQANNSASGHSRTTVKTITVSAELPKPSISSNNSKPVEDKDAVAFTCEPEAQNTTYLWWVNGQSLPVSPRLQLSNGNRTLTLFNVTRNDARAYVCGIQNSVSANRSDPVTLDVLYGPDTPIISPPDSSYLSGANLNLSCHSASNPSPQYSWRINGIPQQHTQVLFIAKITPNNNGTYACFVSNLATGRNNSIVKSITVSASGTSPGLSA

T2: human CEACAM5 on cells (human, UniProt P06731 35-685)
T2 construct: tumour cell lines with endogenous CEACAM5, or B16F10 engineered to express hCEACAM5; also called CEACAM5 on MKN-45, HPAF-II, SK-CO-1, LoVo, BxPC-3, Kato-III, LS-174T, ZR-75-30; hCEACAM5-B16F10
T2 sequence: T1 sequence with V78I

T3: CEACAM5 N-A1-B1-His (human, UniProt P06731 35-322, limits assumed)
T3 sequence: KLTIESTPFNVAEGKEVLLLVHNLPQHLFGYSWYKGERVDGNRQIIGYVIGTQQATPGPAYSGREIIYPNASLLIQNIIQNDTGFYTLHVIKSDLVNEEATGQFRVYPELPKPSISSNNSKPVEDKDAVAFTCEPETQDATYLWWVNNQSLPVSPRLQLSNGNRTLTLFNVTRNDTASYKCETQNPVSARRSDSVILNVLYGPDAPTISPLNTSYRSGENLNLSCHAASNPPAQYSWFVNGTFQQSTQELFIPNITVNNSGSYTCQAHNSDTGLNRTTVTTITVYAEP

T4: Human CEACAM5 (E398) (human, UniProt P06731 35-685, limits assumed)
T4 construct: also called hCEACAM5
T4 sequence: T1 sequence with V78I

B1: AB0466 F3' CEACAM5 TriNKET (bispecific antibody, human IgG1, kappa)
chain: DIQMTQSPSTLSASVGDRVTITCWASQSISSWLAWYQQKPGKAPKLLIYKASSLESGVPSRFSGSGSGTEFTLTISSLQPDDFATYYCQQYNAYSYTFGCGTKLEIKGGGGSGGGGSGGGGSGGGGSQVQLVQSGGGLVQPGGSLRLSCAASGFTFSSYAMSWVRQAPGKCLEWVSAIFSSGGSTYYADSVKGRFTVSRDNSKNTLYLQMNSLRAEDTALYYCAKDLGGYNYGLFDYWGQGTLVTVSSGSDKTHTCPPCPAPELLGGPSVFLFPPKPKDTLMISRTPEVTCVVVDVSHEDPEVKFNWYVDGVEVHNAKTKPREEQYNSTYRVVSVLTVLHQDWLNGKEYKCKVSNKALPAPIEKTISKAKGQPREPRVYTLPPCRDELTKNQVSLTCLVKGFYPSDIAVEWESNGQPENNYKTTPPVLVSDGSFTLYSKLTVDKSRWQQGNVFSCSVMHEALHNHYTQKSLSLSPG
heavy: EVQLVESGGGLVKPGGSLRLSCAASGFTFSSYSMNWVRQAPGKGLEWVSSISSSSSYIYYADSVKGRFTISRDNAKNSLYLQMNSLRAEDTAVYYCARGAPIGAAAGWFDPWGQGTLVTVSSASTKGPSVFPLAPSSKSTSGGTAALGCLVKDYFPEPVTVSWNSGALTSGVHTFPAVLQSSGLYSLSSVVTVPSSSLGTQTYICNVNHKPSNTKVDKKVEPKSCDKTHTCPPCPAPELLGGPSVFLFPPKPKDTLMISRTPEVTCVVVDVSHEDPEVKFNWYVDGVEVHNAKTKPREEQYNSTYRVVSVLTVLHQDWLNGKEYKCKVSNKALPAPIEKTISKAKGQPREPQVCTLPPSRDELTENQVSLTCLVKGFYPSDIAVEWESNGQPENNYKTTPPVLDSDGSFFLYSWLTVDKSRWQQGNVFSCSVMHEALHNHYTQKSLSLSPG
light: DIQMTQSPSSVSASVGDRVTITCRASQGISSWLAWYQQKPGKAPKLLIYAASSLQSGVPSRFSGSGSGTDFTLTISSLQPEDFATYYCQQGVSFPRTFGGGTKVEIKRTVAAPSVFIFPPSDEQLKSGTASVVCLLNNFYPREAKVQWKVDNALQSGNSQESVTEQDSKDSTYSLSSTLTLSKADYEKHKVYACEVTHQGLSSPVTKSFNRGEC
B2: AB0621 F3' CEACAM5 TriNKET (bispecific antibody, human IgG1, kappa)
chain: DIVMTQSPDSLAVSLGERATINCKSSHSLLYGNFQNNYLAWYQQKPGQPPKLLIYWASTRESGVPDRFSGSGSGTDFTLTISSLQAEDVAVYYCQQYYSYPYTFGCGTKLEIKGGGGSGGGGSGGGGSGGGGSQVQLVQSGAEVKKPGASVKVSCKASGYTFTAYTIHWVRQAPGQCLEWMGYINPSSGYTEYNQKFKDRTTLTADTSISTAYMELSRLRSDDTAVYYCTREGGLLWFDYWGQGTLVTVSSGSDKTHTCPPCPAPELLGGPSVFLFPPKPKDTLMISRTPEVTCVVVDVSHEDPEVKFNWYVDGVEVHNAKTKPREEQYNSTYRVVSVLTVLHQDWLNGKEYKCKVSNKALPAPIEKTISKAKGQPREPRVYTLPPCRDELTKNQVSLTCLVKGFYPSDIAVEWESNGQPENNYKTTPPVLVSDGSFTLYSKLTVDKSRWQQGNVFSCSVMHEALHNHYTQKSLSLSPG
heavy: B1 heavy
light: B1 light
B3: AB0411 F3' CEACAM5 TriNKET (bispecific antibody, human IgG1, kappa)
chain: DIQLTQSPATLSVSPGERATLSCRASQSVSSSYLAWYQQKPGQAPRLLIYGASSRATGIPDRFSGSGSGTDFTLTISRLEPEDFAVYYCQQYNNWPLTFGCGTKVEIKGGGGSGGGGSGGGGSGGGGSQVQLVQSGGGLVQPGGSLRLSCAASGFTFTSYAMSWVRQAPGKCLEWVSAISGTGDSTFYADSVKGRFTFSRDNSKNTLYLQMNSLRAEDTAVYYCAKDLGWLQYGLFDYWGQGTLVTVSSGSDKTHTCPPCPAPELLGGPSVFLFPPKPKDTLMISRTPEVTCVVVDVSHEDPEVKFNWYVDGVEVHNAKTKPREEQYNSTYRVVSVLTVLHQDWLNGKEYKCKVSNKALPAPIEKTISKAKGQPREPRVYTLPPCRDELTKNQVSLTCLVKGFYPSDIAVEWESNGQPENNYKTTPPVLVSDGSFTLYSKLTVDKSRWQQGNVFSCSVMHEALHNHYTQKSLSLSPG
heavy: B1 heavy
light: B1 light
B4: AB0264 F3' CEACAM5 TriNKET (bispecific antibody, human IgG1, kappa)
chain: B2 chain with S210P
heavy: B1 heavy
light: B1 light

For the first test, the target named is T1, Human CEACAM5 I112V. Description: SPR, 37C, pH 7.4. Background: In SPR one partner is held on a chip, and binding of the other changes the refractive index at the surface.
In turn, B1 displayed a Kd of 11 nM and a kon of 130000 M⁻¹ s⁻¹.

Consider B2, for which the equilibrium dissociation constant (Kd) came out at 38 nM and the kon turned out to be 42000 M⁻¹ s⁻¹.

In turn, B3 came in with a Kd of 2 nM and a kon of 190000 M⁻¹ s⁻¹.

The target of another test is T2, human CEACAM5 on cells. The experiment in a line: flow cytometry, MKN-45 cells. The procedure:
MKN-45 and HPAF-II human cancer cell lines were diluted into FACS buffer and 100,000 cells of each cell type were seeded per well in duplicate into 96-well plates for FACS staining. The cells were washed with PBS, incubated in a 1:2000 dilution of live/dead dye in PBS for 15 minutes, and then washed with FACS buffer. AB0264, AB0411, AB0466, and AB0621 were diluted into FACS buffer, and 50 μl of each diluted TriNKET was added to the cells. After incubation on ice for 30-120 minutes, the cells were washed with FACS buffer. Anti-human IgG-Fc secondary antibody was diluted into FACS buffer, and 50 μl was added per well for detection of the bound TriNKETs. The cells were incubated for 30-60 minutes on ice and then washed with FACS buffer. 50 μl of fixation buffer was added to each well and the cells were incubated for 10 minutes at room temperature. The cells were washed with FACS buffer and resuspended in FACS buffer for analysis with ThermoFisher Attune NxT, BD FACS Celesta SN #H66034400085, or BD FACS Celesta SN #H66034400160.
Background: Flow cytometry measures light scatter and fluorescence of single cells or particles in a stream.
As to B1, the midpoint of the response, the EC50, lay at 15.2 nM and the “Max FOB” value was 111 fold over background.

As for B2, it took 20.6 nM to reach a half-maximal effect (EC50) and the “Max FOB” value was determined as 51.3 fold over background.

Turning to B3, the EC50 came out at 16.2 nM and the “Max FOB” value was determined as 120 fold over background.

As for B4, a half-maximal effect (EC50) was put at 24.6 nM and the “Max FOB” value was 55 fold over background.

The target in another test is T3, CEACAM5 N-A1-B1-His. The experiment in a line: SPR, Fab capt, 25C. As for the experimental part:
If the protein domain was an Fc fusion, AB0411, AB0466, AB0264, or AB0621 were captured using an anti-human Fab antibody (Cytiva, #28958325) immobilized onto a CM5 chip. The various hCEACAM5 protein domains (N-term, A1-B1, A2, B2, A3, or B3) were titrated over the captured TriNKETs at 50 μL/min for 180 sec of association and 300 sec of dissociation. The assay was run at 25° C. in HBS-EP+ running buffer, pH 7.4. The surface of the CM5 chip was regenerated using […] glycine pH 2.1.
Turning to B1, the Kd is 2.1 nM and the kon amounted to 280000 M⁻¹ s⁻¹.

As to B2, the Kd worked out at 1.8 nM and the association rate constant (kon) came out at 350000 M⁻¹ s⁻¹.

B3 gave a Kd of 0.95 nM and a kon of 300000 M⁻¹ s⁻¹.

The molecule B4 gave a Kd of 1.1 nM and an on-rate (kon) of 410000 M⁻¹ s⁻¹.

A further test deals with T4, Human CEACAM5 (E398). Description: SPR, anti-hFc capture, 37C, pH 7.4. The procedure:
To determine the affinity and cross-reactivity of CEACAM5 TriNKET molecules, AB0411, AB0466, or AB0621 TriNKETs were captured using an anti-human Fc capture antibody (Cytiva, #BR100839) immobilized onto a Biacore CM5 standard surface sensor chip following manufacturer instructions. Human or cynomolgus CEACAM5 were titrated over captured AB0411, AB0466, and AB0621 as 2-fold serial dilutions starting from 300 nM. Association was monitored for 300 sec and dissociation was monitored for 600 sec. The assay was run at 37° C. at pH 7.4 and 6.0. The surface of the CM5 chip was regenerated with 10 mM glycine pH 1.5 for 20 sec at 100 μL/min.
For B1, the Kd came to 7.2 nM and the kon came to 190000 M⁻¹ s⁻¹.

In turn, B2 registered a Kd of 17 nM and an on-rate constant (kon) of 100000 M⁻¹ s⁻¹.

B3 displayed a Kd of 1.7 nM and an association rate constant (kon) of 270000 M⁻¹ s⁻¹.

One may read the Kd as the constant that tells how readily two partners part at equilibrium. Low readings indicate a tighter complex, high ones a looser complex. The term kon denotes the second-order rate constant of association. Broadly, the EC50 is the concentration needed to bring the measured effect to its halfway point. Higher therefore signals a less potent agent.
